Data reported in US9149523B2, “Compositions and methods for treating cancer and neurodegenerative diseases” (Yeda Research and Development Co. Ltd., priority 2010, dated 2015).

Tested on: HEK 293T cells
Assay: Cell detachment assay 24 h after transfection
Assay type: cell-based, human
Conditions: 24 h post-transfection, versus luciferase-transfected control cells, p<0.01 between the two constructs
Protocol: Cell detachment was assessed as described before (Widau, Jin et al. 2010), by counting the adherent cells left in the tissue culture plate after 24 h of transfection with either DAPk WT or ΔP-Loop. Briefly, cells were washed twice in PBS to remove detached cells. Then, adherent cells were trypsinized and counted with a Countess® Automated Cell Counter (Invitrogen). The extent of cell detachment is defined as (the number of control cells—the number of treated cells)/(the number of control cells), where control cells are HEK 293T cell transected with the irrelevant protein luciferase.
The functional effects of the GTP binding on DAPk's ability to induce some of its canonical phenotypic effects in cell cultures, namely cell rounding and detachment, and membrane blebbing, was assessed. These DAPk associated cellular changes are dependent on DAPk's catalytic activity and have been successfully used in other studies to assess DAPk activity in vivo (Widau, Jin et al. 2010). The necessity of the GTP-binding to the ROC domain for the extent of these effects on HEK 293T cells was examined. This was achieved by comparing DAPk WT to its P-Loop deletant counterpart. FIG. 6A presents a western blot analysis showing even expression levels between the constructs used in the cell detachment assay, ruling out any possibility of false results generated by uneven expression levels. […]

B1: WT protein: tagged human full-length death-associated protein kinase (DAPk), expressed by transfection (protein)
chain: MTVFRQENVDDYYDTGEELGSGQFAVVKKCREKSTGLQYAAKFIKKRRTKSSRRGVSREDIEREVSILKEIQHPNVITLHEVYENKTDVILILELVAGGELFDFLAEKESLTEEEATEFLKQILNGVYYLHSLQIAHFDLKPENIMLLDRNVPKPRIKIIDFGLAHKIDFGNEFKNIFGTPEFVAPEIVNYEPLGLEADMWSIGVITYILLSGASPFLGDTKQETLANVSAVNYEFEDEYFSNTSALAKDFIRRLLVKDPKKRMTIQDSLQHPWIKPKDTQQALSRKASAVNMEKFKKFAARKKWKQSVRLISLCQRLSRSFLSRSNMSVARSDDTLDEEDSFVMKAIIHAINDDNVPGLQHLLGSLSNYDVNQPNKHGTPPLLIAAGCGNIQILQLLIKRGSRIDVQDKGGSNAVYWAARHGHVDTLKFLSENKCPLDVKDKSGEMALHVAARYGHADVAQLLCSFGSNPNIQDKEEETPLHCAAWHGYYSVAKALCEAGCNVNIKNREGETPLLTASARGYHDIVECLAEHGADLNACDKDGHIALHLAVRRCQMEVIKTLLSQGCFVDYQDRHGNTPLHVACKDGNMPIVVALCEANCNLDISNKYGRTPLHLAANNGILDVVRYLCLMGASVEALTTDGKTAEDLARSEQHEHVAGLLARLRKDTHRGLFIQQLRPTQNLQPRIKLKLFGHSGSGKTTLVESLKCGLLRSFFRRRRPRLSSTNSSRFPPSPLASKPTVSVSINNLYPGCENVSVRSRSMMFEPGLTKGMLEVFVAPTHHPHCSADDQSTKAIDIQNAYLNGVGDFSVWEFSGNPVYFCCYDYFAANDPTSIHVVVFSLEEPYEIQLNQVIFWLSFLKSLVPVEEPIAFGGKLKNPLQVVLVATHADIMNVPRPAGGEFGYDKDTSLLKEIRNRFGNDLHISNKLFVLDAGASGSKDMKVLRNHLQEIRSQIVSVCPPMTHLCEKIISTLPSWRKLNGPNQLMSLQQFVYDVQDQLNPLASEEDLRRIAQQLHSTGEINIMQSETVQDVLLLDPRWLCTNVLGKLLSVETPRALHHYRGRYTVEDIQRLVPDSDVEELLQILDAMDICARDLSSGTMVDVPALIKTDNLHRSWADEEDEVMVYGGVRIVPVEHLTPFPCGIFHKVQVNLCRWIHQQSTEGDADIRLWVNGCKLANRGAELLVLLVNHGQGIEVQVRGLETEKIKCCLLLDSVCSTIENVMATTLPGLLTVKHYLSPQQLREHHEPVMIYQPRDFFRAQTLKETSLTNTMGGYKESFSSIMCFGCHDVYSQASLGMDIHASDLNLLTRRKLSRLLDPPDPLGKDWCLLAMNLGLPDLVAKYNTSNGAPKDFLPSPLHALLREWTTYPESTVGTLMSKLRELGRRDAADFLLKASSVFKINLDGNGQEAYASSCNSGTSYNSISSVVSR
modifications: left off: small tags and cut ends
notes: tagged human full-length death-associated protein kinase (DAPk), expressed by transfection
cell detachment: 17.4%±7.4%
